Source: patent publication US20220195071A1 (TORQUE THERAPEUTICS, published 2022)

Target: T1, mouse CD8 (mouse, UniProt P01731 28-247; P10300 22-213)
T1 construct: whole, on cells
Assay: flow cytometry of blood 1 hr after i.v. injection (2 µg/mouse); kappa+ IL-15+ cells

T1 sequence (P01731 28-247, chain 1 of 2): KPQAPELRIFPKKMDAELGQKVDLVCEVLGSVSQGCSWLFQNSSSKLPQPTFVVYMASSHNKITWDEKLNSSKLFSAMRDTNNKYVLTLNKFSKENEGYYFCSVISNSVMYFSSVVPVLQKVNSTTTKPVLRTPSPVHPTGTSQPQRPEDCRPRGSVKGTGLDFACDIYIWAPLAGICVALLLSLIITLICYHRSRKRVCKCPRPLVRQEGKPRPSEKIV
T1 sequence (P10300 22-213, chain 2 of 2): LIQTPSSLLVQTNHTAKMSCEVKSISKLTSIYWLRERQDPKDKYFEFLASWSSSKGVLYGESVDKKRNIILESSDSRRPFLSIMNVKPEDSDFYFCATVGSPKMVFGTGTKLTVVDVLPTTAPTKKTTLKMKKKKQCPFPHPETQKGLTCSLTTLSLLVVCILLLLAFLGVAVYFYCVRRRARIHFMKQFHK

fold higher concentration of circulating tethered-fusion positive cells against vehicle control and chM1Fab-IL15/sushi: > 10 fold
B1: chY169Fab-M1scFv-IL15/sushi (bispecific antibody)
chain 1: EVKLQESGGGLVQPGRSLKLSCAASGFNFNDYWMGWVRQAPGKGLEWIGEINKDSSTINYTPSLKDKFTISRDNAQNTLYLQMSKLGSEDTAIYYCARARGMMVLIIPHYFDYWGQGVMVTVSSASTKGPSVFPLAPSSKSTSGGTAALGCLVKDYFPEPVTVSWNSGALTSGVHTFPAVLQSSGLYSLSSVVTVPSSSLGTQTYICNVNHKPSNTKVDKKVEPKSCGGGGSGGGGSGGGGSQVNLLQSGAALVKPGASVKLSCKASGYTFTDYYIHWVKQSHGKSLEWVAYINPDRDYTNYNEKFKSKATLTVDKSTNTAYMELSRLTSEDSATFYCTRRLYDGAYYYSWFAYWGQGTLVTVSSGGGGSGGGGSGGGGSGGGGSDIQMTQSPHSLSASLGETVSIECLASEGISNYLAWYQQKPGKSPQLLIYYGSRLQDGVPSRFSGSGSGTQYSLRITNMQPEDEGVYYCQQGYKYPYTFGAGTKLELK
chain 2: not shown
chain 3: ITCPPPMSVEHADIWVKSYSLYSRERYICNSGFKRKAGTSSLTECVLNKATNVAHWTTPSLKCIR
